Measured values as given in patent publication US8247535B2, “Directed evolution of GRG31 EPSP synthase enzyme” (Athenix Corp., priority 2008, dated 2012).
Substitutions are numbered along the chain they refer to. Names may count otherwise.

Experiments:
[1] = molecular target: GRG31 EPSP synthase; experiment: Kinetic analysis of GRG31 variants (Ki for glyphosate, Km for PEP, Vmax); assay type: biochemical; parameters: Vmax: unit not given here; settings: for Ki: Ki for glyphosate, calculated from plot of Km(app) vs. glyphosate concentration; for Km: Km for PEP; for Vmax: unit not given
Description: GRG31 variants L3P2b11, L3P2c11 and L4e11, and L5e3 were characterized by enzymatic assays as described herein, and compared to the native GRG31 enzyme. For each enzyme the apparent Km (Km(app)) was determined at each of several glyphosate concentrations, and a plot of Km(app) vs. glyphosate concentration was used to calculate the Ki for each enzyme. The thermostability for each enzyme was assessed by incubating the enzyme at 37° C. for 16 hours, and then quantifying the enzymatic activity remaining (as Vmax) vs. control enzyme that was incubated at 4° C.

[2] = test system: GRG31 EPSP synthase; experiment: Extract prescreens of library clones at a few glyphosate and PEP concentrations; assay type: biochemical; settings: for activity in glyphosate prescreen: 0, 1, and 2 mM glyphosate, among 31 resistant clones; for combination of glyphosate resistance and activity at low PEP concentrations: library 3, 0 and 0.2 mM glyphosate, 0, 20, and 50 μM PEP
Description: Library 1 was cloned into pAX3625 and 130,000 clones were plated onto plates containing 50 mM glyphosate. […] Extracts were prepared and assessed for glyphosate resistance by assaying activity in the presence of a small number of glyphosate concentrations (0, 1, and 2 mM glyphosate).
Extracts from these six clones were assayed for activity at a range of PEP concentrations (0, 20, 50, and 100 μM PEP).
One hundred and fifteen thousand (115,000) clones were plated onto plates containing 50 mM glyphosate and 384 glyphosate resistant clones were picked for sequencing. […] A Ki assessment of the unique clones was carried out by testing activity at 0 and 0.2 mM glyphosate. […] An assessment of the Km of protein encoded by these nine clones was performed by comparing activity at 0, 20, and 50 μM PEP.

[3] = test system: GRG31 EPSP synthase; assay type: biochemical; settings: for thermostability at 37° C. compared with GRG31: survival of activity at 37° C., in words
Description: The thermostability of several variants of GRG31 was analyzed by measuring survival of activity at 37° C.

[4] = test system: GRG31 EPSP synthase; experiment: Thermostability of purified GRG31 variant proteins (4 hrs at 37° C.); assay type: biochemical; settings: in words
Description: GRG31 variants L3P2b11, L3P2c11 and L4e11, and L5e3 were characterized by enzymatic assays as described herein, and compared to the native GRG31 enzyme. For each enzyme the apparent Km (Km(app)) was determined at each of several glyphosate concentrations, and a plot of Km(app) vs. glyphosate concentration was used to calculate the Ki for each enzyme. […]
Three variants (6b2, 6e7, and the triple EK (N95S A206V E215K; SEQ ID NO:20)) were grown, their proteins purified, and the thermostability of the proteins analyzed in more detail.

[5] = test system: GRG36; experiment: Kinetic constants of GRG36 enzymes (Km, Ki, Vmax); assay type: biochemical; settings: for Km: substrate phosphoenolpyruvate; for Ki: glyphosate, (−)x-intercept of Kobs vs. glyphosate concentration
Description: The syngrg36 DNA library was transformed into E. coli strain BL21*DE3 star (Invitrogen) for induction of protein expression. Following transformation, individual colonies were plated on 1×M63 medium containing 25 mM glyphosate to select for clones that had retained enzymatic activity and growth tolerance. Individual colonies were picked and arrayed into 384-well plates to create a mutagenized library for enzymatic activity screening. Two 384-well plates were created in this manner. Enzymatic activity screening was carried out as follows. Library clones were pinned into 96-well blocks containing LB medium and were grown to A600=0.6. IPTG was then added (0.5 mM) and the blocks were incubated overnight at 20° C. to induce protein expression. Next, protein extracts were prepared from individual cultures using POPCULTURE® reagent (Novagen) and the enzymatic activity was measured as disclosed in U.S. patent application Ser. No. 11/651,752, filed Jan. 10, 2007, herein incorporated by reference in its entirety. […] These 6 were selected for further characterization.
Additionally, enzymatic assays were carried out to calculate the kinetic constants for substrate binding affinity (Km), glyphosate binding (Ki) and enzymatic rate (Vmax). Briefly, each enzyme was titrated with the substrate phosphoenolpyruvate and the linear enzymatic rate was plotted versus the substrate concentration. This plot was fit to the Michaelis-Menton equation to calculate the substrate concentration that produced one-half of the maximal rate (Km), and the maximal rate obtained at saturating substrate was divided by the enzyme concentration to yield Vmax. Next, additional substrate titrations were carried out at various glyphosate concentrations, and the apparent binding constant at each glyphosate concentration (Kobs) was plotted against the glyphosate concentration to yield a straight line. The Ki was measured as (−)x-intercept.

[6] = test system: GRG36; settings: for fold higher thermostability at 37° C. than wild-type GRG36: relative to wild-type GRG36
Description: Following induction, each GRG36 protein variant was purified by affinity chromatography to a cobalt resin (Novagen). The purified proteins were tested for enzymatic activity following heating for 0, 4 and 6 hours at 37° C.

B1: GRG31pm3b8: GRG31 variant I75→C; P77→N; M82→T, SEQ ID NO:10 (protein)
chain: MNQQVITLTHPSKKIQGTVQLTGSKSESNRALIIQSLSKGQVEIANLSEAADTVTLNRVLQIASDPKPGFNTIDCGNAGTATRFLTAYLNLVKGNFILTGTERMQQRPIGILVDAMKEIGADIHYDKKVGYPPLKIEGGLFQEKDRVKIKGNISSQYISALLLIAPALKKGLTLEIEGELTSRPYVSMTLDMLKSVGIQHEWKNNAIKIAPQAFEKQTIYVEPDWSAASYWYAIAALADANASIVLPGLRKNSLQGDIAIISIMEHFGVQSSFESDGLHLNKKVIGSDVSLFNFKECPDLAQTVVVVAAALKRDVSFTGLETLKIKETDRIAALQKEIAKFGAELIEDGDTYHLKTAQVYQPEEVTFDTYEDHRMAMAFAPLALVFDQIKIAEPQVVEKSYPDFWNHLQAQAFVIE
modifications: GRG31 variant (clone GRG31pm3b8)
Ki [1]: 116 µM | activity in glyphosate prescreen ([2]; extracts): best activity | activity at low PEP concentrations ([2]; extracts, 0, 20, 50, and 100 μM PEP, among six clones): best activity at low PEP concentrations

B2: L3P2c11 + 6b2: GRG31 variant Y88→F; N95→S, A206→V, SEQ ID NO:25 (protein)
chain: B1 chain with C75I, N77P, T82M, Y88F, N95S, A206V
modifications: GRG31 variant (L3P2c11+6b2)
Ki [1]: 405 µM | Km [1]: 7.9 µM | Vmax improvement over the GRG31(L3P2c11) protein ([1]; relative to GRG31(L3P2c11), in words): about four to five-fold | Vmax relative to GRG31 ([1]; relative to GRG31, in words): approximately equal to that of GRG31 | improvement in Ki for glyphosate relative to GRG31 ([1]; relative to GRG31, in words): more than four-fold | improvement in Km for PEP relative to GRG31 ([1]; relative to GRG31, in words): approximately two-fold | Vmax [1]: 23.4 | t1/2 at 37° C. [3]: 3.5 h | thermostability at 37° C. compared with GRG31 [3]: improved thermostability

B3: Triple EK: GRG31 variant N95S A206V E215K, SEQ ID NO:20 (protein)
chain: B1 chain with C75I, N77P, T82M, N95S, A206V, E215K
modifications: GRG31 variant (triple EK)
Ki [1]: 48.2 µM | Km [1]: 7.2 µM | improvement in Km for PEP relative to GRG31 ([1]; relative to GRG31, in words): improved (lower) | Vmax [1]: 33 | thermostability compared to wild-type GRG31 [4]: increased thermostability

B4: L5e3: GRG31 variant P77→T, SEQ ID NO:17 (protein)
chain: B1 chain with C75I, N77T, T82M
modifications: GRG31 variant (clone L5e3)
Ki [1]: 507 µM | Km [1]: 11.4 µM | Vmax [1]: 3.6 | t1/2 at 37° C. [3]: 10.8 h | thermostability at 37° C. compared with GRG31 [3]: improved thermostability

B5: L3P2c11: GRG31 variant Y88→F, SEQ ID NO:14 (protein)
chain: B1 chain with C75I, N77P, T82M, Y88F
modifications: GRG31 variant (clone L3P2c11)
Ki [1]: 715 µM | Km [1]: 39.6 µM | improvement in Ki for glyphosate relative to GRG31 ([1]; relative to GRG31, in words): improved | Vmax [1]: 5.3 | combination of glyphosate resistance and activity at low PEP concentrations [2]: best combination of glyphosate resistance and activity at low PEP concentrations

B6: GRG31pm3d3: GRG31 Q-loop library 1 variant, SEQ ID NO:12 (protein)
chain: B1 chain with G76D, N77A, Y88F
modifications: GRG31 variant (clone GRG31pm3b3)
activity in glyphosate prescreen ([2]; extracts): best activity

B7: L3P2b11: GRG31 variant P77→Q; A81→S; M82→L; Y88→F, SEQ ID NO:13 (protein)
chain: B1 chain with C75I, N77Q, A81S, T82L, Y88F
modifications: GRG31 variant (clone L3P2b11)
Ki [1]: 983 µM | Km [1]: 11 µM | improvement in Ki for glyphosate relative to GRG31 ([1]; relative to GRG31, in words): improved | Vmax [1]: 5.7 | combination of glyphosate resistance and activity at low PEP concentrations [2]: best combination of glyphosate resistance and activity at low PEP concentrations

B8: L3P2c11 + triple EK: GRG31 variant Y88→F; N95→S, A206→V; E215→K, SEQ ID NO:23 (protein)
chain: B1 chain with C75I, N77P, T82M, Y88F, N95S, A206V, E215K
modifications: GRG31 variant (L3P2c11+triple EK)
Ki [1]: 298 µM | Km [1]: 12.6 µM | Vmax [1]: 14.4 | t1/2 at 37° C. [3]: 2.7 h | thermostability at 37° C. compared with GRG31 [3]: thermostability equivalent to GRG31

B9: GRG36(ace7): GRG36 protein variant, SEQ ID NO:27, encoded by syngrg36(ace7) (protein)
chain: MKNQNFDAKARSPWTPLKGVNKISVSPSKGRINGTVTIPGSKSLTNRALIISSLASGKSKVQGILKSDDSFWCLDSLKKLGVNVKIQGDIAFIEGNGGKWESGDLYIGAAGTIARFLPGALAVSGTGIWELEASKSMSKRPISPQVDALKELGAEITYLSDQGYYPLLVKGKQLNGGEVELSGRISSQFISGLLIASPYLNDPIKINIKDHIVQHSYVLLTLELMKKFGAKVKYDSSLKEIVVYPSKYTPQDINLEADVSTACYFLALAAVTNGKVQIDNLTYETKQPDIKMVDILERMGCKVTRGSSFIEIEGVSQLKGGFEISMREMSDQVLTLAAIAPFADEPITIKDVEHIRHHESNRISVLVDSLSRLGIIVEEFKDGLKVYPGNPKATLLDTHDDHRVAMALSLIGSRVEGIQINDPGCVSKTCPQYFELLEKLGLNIIKH
modifications: GRG36 variant (GRG36(ace7))
Vmax [5]: 1.8 nmol/min/µg | activity at 1 mM glyphosate compared with GRG36 ([5]; 1 mM glyphosate): very similar activity | Km [5]: 9.8 µM | Half-life at 37° C. [6]: 18.8 h | fold higher thermostability at 37° C. than wild-type GRG36 [6]: 7.5 fold

B10: GRG36: wild-type GRG36 EPSP synthase, SEQ ID NO:4 (protein)
chain: B9 chain with I90T, Q145L
modifications: derived from organism isolated from soil
Vmax [5]: 8 nmol/min/µg | Ki [5]: 421 µM | Km [5]: 6.3 µM | Half-life at 37° C. [6]: 2.5 h

B11: GRG36(ace8): GRG36 protein variant, SEQ ID NO:28, encoded by syngrg36(ace8) (protein)
chain: B9 chain with I90T, Q145L, K350T, L410M
modifications: GRG36 variant (GRG36(ace8))
Vmax [5]: 6.8 nmol/min/µg | Ki [5]: 435 µM | Km [5]: 11 µM | Half-life at 37° C. [6]: 7.3 h | fold higher thermostability at 37° C. than wild-type GRG36 [6]: 2.5 fold
